Tests used:
[1] = test system: 2G12 (anti-HIV-1 gp120 carbohydrate-binding monoclonal antibody); test: BLI; conditions: N are Man9-derivatized dU (3 sites); 5' A5 spacer [26,33,39]; 1:1 global fit; kon 2.04e4 /M/s, koff 2.53e-4 /s
[2] = test system: 2G12 (anti-HIV-1 gp120 carbohydrate-binding monoclonal antibody); test: filter

“AAAAACGGGTACGGGAGACCCACGGTGCAACCTACGGATAAAGCACACAGGAGACGACAAG [Clone 1 biotinylated glycoDNA (BLI)]” was tested, and the Kd [1] was 0.0124 µM.

Sequence “CGGGTACGGGAGACCCACAGTGCAACCTACGGATAAAGCACACAGGAGACGACAAG [Clone 2 glycoDNA]” has a Kd ([2]; all T in random region are EdU-Man9 (3 sites), 20 mM Tris pH 7.5, 150 mM NaCl, 4 mM MgSO4, BSA, binding at 37 C also shown in FIG. 11) of 0.0017 µM.

For “CGGGTACGGGAGACCCATGGTGCAACCTACGGATAAAGCACACAGGAGACGACAAG [Clone 7 glycoDNA]”, the Kd ([2]; all T in random region are EdU-Man9, moderate binding, Mg2+ buffer) was 0.012 µM.

From patent US11268099
